From the nanobody polyreactivity screen of Harvey et al. (2022)

Assay: yeast display, Sf9 membrane polyspecificity reagent, FACS + sequencing; frameworks hold sequencing errors
Procedure, shortened: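 In a synthetic yeast display library (Saccharomyces cerevisiae BJ5465), nanobody expression was induced with galactose for 36–48 hours. FACS gates were set low and high (top ~1%) using anti-HA fluorescence for expression and streptavidin fluorescence for binding of the Sf9 membrane reagent. Each polyreactivity label is drawn from the gate of origin.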

Sequence | polyreactivity (PSR sort gate)
QVQLVDSGGGLVQAGGILRLSCAASGLTFYDNAMGWYRQAPAKERELVAAISDSGGSTYYADSVKGRFTISRDNAKNTVFLQMNSLKPEDTAVYYCAAAGWQANWEYEYWGQGTQVTVSS | high polyreactivity
QVQLVESGGGLVQAGGSLRLSCAASGSIFGLYAMGWYRQAPGKERELVAAISSRGSSTYYADSVKGRFTISRDNAKNTVYIQMNSLKPEDTAVYYCNAYPFSRSVQLRDYWGQGTQVTVSS | low polyreactivity
QVQLVESGGGLVQAGGSLRLSCADSGRIFGLNAMGWYRQAPGKEREFVAAIRWRGGSTYYADSVKGRFTISRDNAKNTVYLQMNSLKPEDTAVYYCAADRNLGVSRYGYWGQGTQVTVSS | high polyreactivity
QVQLVESGGGLVQAGGSLRLSCAAARYAMGWYRQAPGKERELVAAISKSGGSTYYADSVKGRFTISRDNAKNTVYLQMNSLKPEDTAVYYCAARGHAGRGEYYYWGQGTQVTVSS | high polyreactivity
QVQLVESGGGLVQAGGSLRLSCAASGYTFRPYAMGSYIQAPGKERELVAAISSTGGRTYYADSVKGRFTISRDIAKNTVYVQMNSLKPEYTAVYYCAVLKVYRSSFDYCGQGTQVTVSS | high polyreactivity
QVQLEESGGGLVQAGGSLRLSCAASGSIFEWNDMGWSRQAPGKEREFVAAITSTDDGTYYADSVKGRFTISRDNAKNTVYLQMNSLKPEDTAVYYCAKRAWGSPYGYWGQGTQVTVSS | low polyreactivity
QVQLVESGGGLVQAGGILRLSCAASGSIFLYNALGWYRQAPGKERELVAAISKSGGSTYYADSVKGRFTISRDNAKNTVYLQMNSLKPEDTAVYYCAAGYGRLIRYGSDYDYWGQGTQVTVSS | low polyreactivity
QVQLVESGGGLVQAGGSLRLSCAASGITLKKYAMVWYRQAPGKERELVAAISIRGTSTYYADSVKGRFTISRDNAKNSVFLQMNSLKPEDTAVYYFAALYVVGDVRSGYWGQCTQVTVSS | high polyreactivity
QVQLVESGGGLVQEGGSLRLSCAAYGFIFGDNALGWYRQAPGKERELVAGSTVSDGSTYYADSVKGRFTISRDNAKNTVYLLMNSLKPEDTAVYYCNAAGRYKPGAPYDYWGQGNQVTVSS | low polyreactivity
QVQLVESGGGLVQAGGSLRLSCADSGFTFISNAKGWYRQAPGKERELVAAISSSGGRTYYADSVKGRFTISRDNAKNTVYLQMNSLKPEDTAVYYCNADRSLLYSRKIEYDYWGQGTQVTVSS | low polyreactivity
QFQLVESGGGLVQAGGSLRLSCAASGSTFRIYTMGWYRQAPGKHRELVAGISSSGNTNYADSVKGRFTISRDNAKNTVYLQMYSLKPEDTAVYYCAAVQPAWGNGYWGQGTQVTVSS | high polyreactivity
QVQLVESGGGLVQAGGSLRLSCAASGRTFVYNAMGWYRQAPGKERELVATITSSGNTYYADSVKGRFTISRDNAKNTVYLQMNSLKPEDTAVYYCNRRYWTSGYWGQGTQVTVSS | high polyreactivity
QVQLVESGGGLVQAGGSLRLSCAASGFTLYGYAMGWYRQAPGKERELVAGIRYSGGRTYYADSVKGRFTISRDNAKNTVYLQMNSLKPEDTAVYYCAADGGYWRGTGYEYWGQGTQVTVSS | high polyreactivity
QVQLVESGGGLVQAGGSLRLSCAASGFTFPYYAMGWYRQAPGKERELVAAISWSGGSTNYADSVKGRFTISRDNAKNTVYLQMNSLIPEDTAVYYCATLPGYSMDFWGQGSQVTVSS | high polyreactivity
QVQLVESGGGLVQAGGSLRLSCAASGSIFVPYAMGWYRQAPGKERELVASINWNGSSTYADSVKGRFTISRDNAKNSVYLQMNSLKPEDTAVYYCNADYNRNSVQFSLYDYWGQGTQVTVST | low polyreactivity
QVQLVESGGGLVQAGGSLRLSCAASGFTFVAYAMGWYRPAPGKERELVAAIRRTDTSTYYADSVKGRFTISRDNAKNTVYLQMNSLKPEDTAVYYCAADYWRRTYLGFDYWGQGTQVTVSS | low polyreactivity
QVQLVESGGGLVQAGGSLRLSCAASGFTFYRYAMGWYRQAPGKERELVATISASGGSTYYADSVKGRFTISRDNAKNTVYLQMNSLKPEDTAVYYCAVRYKSWYGFNYWGQGTQVTVSS | high polyreactivity
